Experimental data reported in US20150218285A1 (TORAY INDUSTRIES, published 2015).

Each binder was assayed against T1, CAPRIN-1 protein on the cell surface of human cancer cells (human, UniProt Q14444 2-709) (assay: cell-based or functional assay).
T1 sequence (looked up): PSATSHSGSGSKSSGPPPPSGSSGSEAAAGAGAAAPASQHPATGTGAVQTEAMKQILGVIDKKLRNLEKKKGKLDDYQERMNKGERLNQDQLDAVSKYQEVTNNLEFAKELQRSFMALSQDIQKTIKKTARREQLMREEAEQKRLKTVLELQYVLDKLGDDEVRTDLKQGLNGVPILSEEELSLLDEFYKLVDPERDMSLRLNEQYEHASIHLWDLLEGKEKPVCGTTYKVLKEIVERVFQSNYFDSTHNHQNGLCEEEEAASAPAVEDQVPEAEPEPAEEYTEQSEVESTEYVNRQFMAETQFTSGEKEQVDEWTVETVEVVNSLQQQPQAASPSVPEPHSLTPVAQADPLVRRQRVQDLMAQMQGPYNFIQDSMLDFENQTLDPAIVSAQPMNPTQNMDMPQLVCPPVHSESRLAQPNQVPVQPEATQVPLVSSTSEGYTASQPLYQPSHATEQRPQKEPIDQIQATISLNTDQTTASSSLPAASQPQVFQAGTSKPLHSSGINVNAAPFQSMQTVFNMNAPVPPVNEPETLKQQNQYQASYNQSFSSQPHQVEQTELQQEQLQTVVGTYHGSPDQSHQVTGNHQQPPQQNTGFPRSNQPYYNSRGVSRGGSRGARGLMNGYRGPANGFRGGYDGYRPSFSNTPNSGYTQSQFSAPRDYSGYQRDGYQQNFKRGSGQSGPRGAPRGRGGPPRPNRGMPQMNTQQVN

Binder	ADCC activity on Hep3B, HepG2, SK-Hep-1, SW480	cytotoxicity (ADCC, 51Cr release, human NK cells) on Hep3B, HepG2, SK-Hep-1, SW480	cytotoxicity (ADCC, 51Cr release) on SK-Hep-1
human-mouse chimeric anti-CAPRIN-1 antibody #23 (antibody, human IgG1, kappa, V domains shown) VH: GGGLVKPGGSLKLSCAASGFTFSSYGMSWVRQTPEKRLEWVATISSGGSYTYYPDSVKGRFTISRDNAKNTLYLQMSSLRSEDTAMYYCASLASYYFDYWGQGTTLTVSS VL: GARCDVQMIQSPSSLSASLGDIVTMTCQASQGTSINLNWFQQKPGKAPKLLIYGASSLEDGVPSRFSGSCFGTDFTLTISSLEDEDMATYFCLQHSYLPPLTFGAGTKLELKR	≥ 20%	–	–
human-mouse chimeric anti-CAPRIN-1 antibody #34 (antibody, human IgG1, kappa, V domains shown) VH: GAELVRPGTSVKVSCKASVYAFTNYLIEWVKQRPGQGLEWIGVINPKSGGTKYNEKFRGKATLTADKSSSTAYMQLSSLTSGDSAVYFCAITGTDYWGQGTTLTVSS VL: QGTRCDIQMTQTTSSLSASLGDRVTISCSASQGINNYLNWYQQKPDGTVKLLIYYTSSLRSGVPSRFSGSGSGTDYSLTISNLEPEDVATYYCQQYSKLPRTFGGGTKLEIKR	–	≥ 20%	–
human-chicken chimeric antibody #2 (antibody, human IgG1, kappa, V domains shown) VH: AVTLDESGGGLQTPGGGLSLVCKASGFTFSSFDMGWVRQAPGKGLEFVAQINDAGSRTWYATAVKGRATISRDNGQTTVRLQLNNLRAEDTGTYYCTRGSGYVGAGAIDAWGHGTEVIVSA VL: AALTQPSSVSANPGETVKITCSGGSGYYGWYQQQKSPGSAPVTVIYQNDKRPSDIPSRFSGSGSGSTNTLTITGVQAEDEAVYFCGRYDSTDSGIFGAGTTLTVLT	–	–	≥ 12%
human-mouse chimeric anti-CAPRIN-1 antibody #27 (antibody, human IgG1, kappa, V domains shown) VH: GGGLVQPGGSMRLSCVASGFTFSNSWFNWVRQSPEKGLEWVAEIRLTSDNYAIYYAESVKGRFTISRDDSKSSVYLQMNNLRAEDTGIYYCTRPETARATFAYWGQGTTVTVSS VL: DVLMTQTPLSLPVSLGDQASISCRSSQSIVHSNGNTYLEWYLQKPGQSPKVLIYKVFNRFSGVPDRFSGSGSGTDFTLKISRVEAEDLGVYYCFQGSHVPRTFGGGTKLNQTG	≥ 20%	–	–
mouse monoclonal antibody #6 (antibody) chain 1: DAELVKPGASVKISCKASGYTFTDHSIHWVQQKPEQGLEWIGYISPGNGNIKYNEKFKGKATLTADKSSSTAYMQLNSLTSEDSAVYFCKRSLGRGGPYYFDYWGQGTTVTVSS chain 2: DIVLTQAAPSLPVTPGESVSISCRSSKSLLHSNGNTYLYWFLQRPGQSPQLLIYRMSNLASGVPDRFSGSGSGTAFTLRISRVEAEDVGVYYCMQHREYPVTFGSGPN	–	–	≥ 12%
human-mouse chimeric anti-CAPRIN-1 antibody #30 (antibody) heavy: not shown light: DVQITQSPSYLAASPGETITINCRASKSISKYLAWYQEKPGKTNKLLIYSGSTLQSGIPSRFSGSGSGTDFTLTISSLEPEDFAMYYCQQHNEYPYTFGGGTKLEIKRTVAAPSVFIFPPSDEQLKSGTASVVCLLNNFYPREAKVQWKVDNALQSGNSQESVTEQDSKDSTYSLSSTLTLSKADYEKHKVYACEVTHQGLSSPVTKSFNRGEC	–	≥ 20%	–
human-mouse chimeric anti-CAPRIN-1 antibody #31 (antibody, human IgG1, kappa) heavy: not shown light: DVQITQSPSYLAASPGETITINCRASKSISKYLAWYQEKPGKTNKLLIYSGSTLQSGIPSRFSGSGSGTDFTLTISSLEPEDFAMYYCQQHNEYPWTFGGGTKLEIKRTVAAPSVFIFPPSDEQLKSGTASVVCLLNNFYPREAKVQWKVDNALQSGNSQESVTEQDSKDSTYSLSSTLTLSKADYEKHKVYACEVTHQGLSSPVTKSFNRGEC	–	≥ 20%	–
human-mouse chimeric anti-CAPRIN-1 antibody #36 (antibody, human IgG1, kappa) heavy: not shown light: QDELSNPVTSGESVSISCRSSKSLLYKDGKTYLNWFLQRPGQSPQLLIYLMSTRASGVSDRFSGSGSGTDFTLEISRVKAEDVGVYYCQQLVEDPLTFGAGTKLELKRTVAAPSVFIFPPSDEQLKSGTASVVCLLNNFYPREAKVQWKVDNALQSGNSQESVTEQDSKDSTYSLSSTLTLSKADYEKHKVYACEVTHQGLSSPVTKSFNRGEC	–	≥ 20%	–

Now from value to binder, other results behind:

ADCC activity on Hep3B, HepG2, SK-Hep-1, SW480	Binder	cytotoxicity (ADCC, 51Cr release, human NK cells) on Hep3B, HepG2, SK-Hep-1, SW480	cytotoxicity (ADCC, 51Cr release) on SK-Hep-1
≥ 20%	human-mouse chimeric anti-CAPRIN-1 antibody #24 (antibody, human IgG1, kappa, V domains shown) VH: GGGLVKPGGSLKLSCAASGFTFSSYGMSWVRQTPEKRLEWVATISSGGSYTYYPDSVKGRFTISRDNAKNTLYLQMSSLRSEDTAMYYCASLASYYFDYWGQGTTLTVSS VL: not shown	–	–
≥ 20%	human-mouse chimeric anti-CAPRIN-1 antibody #26 (antibody, human IgG1, kappa) heavy: not shown light: PASSSDVLMTQTPLSLPVRLGDQSSISCRSSQSIVHSNGNTYLEWYLQKPGQSPKLLIYKVSNRFSGVPDRFSGSGSGTDFTLKISRVEPEDLGVYYCFQGSHVPYTSEGDQAEIKLATVAAPSVFIFPPSDEQLKSGTASVVCLLNNFYPREAKVQWKVDNALQSGNSQESVTEQDSKDSTYSLSSTLTLSKADYEKHKVYACEVTHQGLSSPVTKSFNRGEC	–	–
≥ 20%	human-mouse chimeric anti-CAPRIN-1 antibody #25 (antibody, human IgG1, kappa, V domains shown) VH: GPGLVQPSQSLSITCTVSGFSLTTYDLHWVRQSPGKGLEWLGVIWSGGSTDYNAAFISRLSISKDNSKSQVFFKMNSLQANDTAIYYCARNYGYSAWFAYWGQGTLVTVSA VL: DVLMTQTPLSLPVSLGDQASISCRSSQSIVHSNGNTYLEWYLQKPGQSPKLLIYKVSNRFSGVPDRFSGSGSGTDFTLKISRVEAEDLGVYYCFQGSHVPLTFGAGTKLELKR	–	–
≥ 20%	human-mouse chimeric anti-CAPRIN-1 antibody #28 (antibody, human IgG1, kappa, V domains shown) VH: GPDLVKPGASVKISCKASGYSFTAYYMHWVKQSHGKSLEWIGRVNPNNGGTTYNQKFKGKAILTVDKSSSTAYMELRSLTFEDSAVYYCARRIYYGYFDYWGQGTTVTVSS VL: AFFAVSLGQRATISCKASQSVDYDGDSYMNWYQQKPGQPPKLLIYVASNLESGVPARFSGSGSGTDFTLNIHPVEEEDAATYYCQQSNEDPYTFGGGTKLEIKQ	–	–
≥ 20%	human-mouse chimeric anti-CAPRIN-1 antibody #29 (antibody, human IgG1, kappa) heavy: not shown light: GTCGDIVMSQSPSSLAVSAGEKVTMSCKSSQSLLNSRTRKNYLAWVQHKPGQSPRLLIYWASTRESGVPDRFTGSGSGTDFTLTISSVQAEDLAVYYCRQSYNLVTFGAGPSTVAAPSVFIFPPSDEQLKSGTASVVCLLNNFYPREAKVQWKVDNALQSGNSQESVTEQDSKDSTYSLSSTLTLSKADYEKHKVYACEVTHQGLSSPVTKSFNRGEC	–	–

What follows are binders tested against T1, CAPRIN-1 protein on the cell surface of … (assay: flow cytometry on Hep3B, HepG2, SK-Hep-1, SW480; culture supernatant; vs isotype control).
Method: Subsequently, four liver cancer cell lines (Hep3 GB, HepG2, SK-Hep-1, and SW480), which were confirmed to express a CAPRIN-1 gene, were investigated for whether or not a CAPRIN-1 protein is expressed on the surfaces of these cells. 1×10⁶ cells of each cell line were centrifuged with a 1.5-mL micro centrifugation tube. To the cells was added the culture supernatant (100 μL) containing any of mouse monoclonal antibodies #1 to #22 against a CAPRIN-1 protein reacting to cancer cell surface produced in Example 4 and mouse-chicken chimeric antibodies #1 to #3 against a CAPRIN-1 protein produced in the above (2), followed by being left to stand on ice for 1 hour. After washing with PBS, the cells were suspended in a FITC-labeled goat anti-mouse IgG antibody (manufactured by Invitrogen Corporation) diluted by 500-fold with PBS containing 0.1% FBS, followed by being left to stand on ice for 1 hour. After washing with PBS, the fluorescence intensity was measured with FACS Calibur available from Becton, Dickinson and Company. Separately, as a control, the same procedure as in above was performed using an iso-type control antibody, instead of the culture supernatants containing the mouse monoclonal antibodies #1 to #22 against a CAPRIN-1 protein and the mouse-chicken chimeric antibodies #1 to #3. As a result, the fluorescence intensity in the cells to which any of the monoclonal antibodies #1 to #22 and the mouse-chicken chimeric antibodies #1 to #3 was added was 20% or more higher than that in the control in every case. Specifically, in the case of using mouse-chicken chimeric antibody #1, the fluorescence intensity was enhanced by 200% or more in both SK-Hep-1 and Hep3B. […] The rate of increase in the fluorescence intensity is represented by the rate of increase in the mean fluorescence intensity (MFI value) in each cell and is calculated by the following calculation formula: […]

rate of increase in mean fluorescence intensity	Binder
≥ 20%	mouse monoclonal antibody #6 (antibody) chain 1: DAELVKPGASVKISCKASGYTFTDHSIHWVQQKPEQGLEWIGYISPGNGNIKYNEKFKGKATLTADKSSSTAYMQLNSLTSEDSAVYFCKRSLGRGGPYYFDYWGQGTTVTVSS chain 2: DIVLTQAAPSLPVTPGESVSISCRSSKSLLHSNGNTYLYWFLQRPGQSPQLLIYRMSNLASGVPDRFSGSGSGTAFTLRISRVEAEDVGVYYCMQHREYPVTFGSGPN
≥ 20%	mouse-chicken chimeric antibody #1 (antibody, mouse IgG1, V domains shown) VH: AVTLDESGGGLQMSRGGLSLVCKASGFDFSSYQMNWIRQAPGKGLEFVAAINKFGNSTGHGAAVKGRVTISRDNGQSTVRLQLNNLRAEDTAIYFCTKHAYGYCGSGTWCAAGEIDAWGHGTEVIVSS VL: QAASTQPSSVSANPGETVEITCSGGGSYSYGWFQQKSPGSAPVTVIYYNNKRPSDIPSRFSGSKSGSTGTLTITGVQADDEAVYYCGSGDSTDTAVFGAGTTLTVLG
≥ 20%	mouse-chicken chimeric antibody #2 (antibody, mouse IgG1, V domains shown) VH: AVTLDESGGGLQTPGGGLSLVCKASGFTFSSFDMGWVRQAPGKGLEFVAQINDAGSRTWYATAVKGRATISRDNGQTTVRLQLNNLRAEDTGTYYCTRGSGYVGAGAIDAWGHGTEVIVS VL: AALTQPSSVSANPGETVKITCSGGSGYYGWYQQQKSPGSAPVTVIYQNDKRPSDIPSRFSGSGSGSTNTLTITGVQAEDEAVYFCGRYDSTDSGIFGAGTTLTVL
≥ 20%	mouse-chicken chimeric antibody #3 (antibody, mouse IgG1, V domains shown) VH: AVTLDESGGGLQTPGGALSLVCKASGFTFSGYDMLWVRQAPGKGLEWVAGIGSTGGGTDYGAAVKGRATISRDNGQSTVRLQLNNLRAEDTATYYCAKVAGGCNSGYCRDSPGSIDAWGHGTEVIVS VL: AVTQQPASVSANPGETVKITCSGGGSRNYYGWYQQKSPGSVPVTVIYYDDQRPSNIPSRFSGALSGSTSTLTITGVQADDEAVYFCGSADSNTYEGSFGAGTTLTVL
